Some results are limits rather than exact numbers.

Assay [1] concerns the target T1, IFNAR2/Fc fusion protein (extracellular domain of the human IFNAR2 receptor chain fused to the hinge, CH2 and … (human, UniProt P48551 27-243)).
T1 construct: extracellular domain; Expressed in CHO cells, purified on protein A, captured on plates by mouse anti-human IgG1 mAb CDG5-AA9; also called IFNAR2-ectodomain/Fc fusion protein; IFNAR/Fc; not shown: human IgG1 heavy chain constant region: hinge, CH2 and CH3 domains
T1 sequence (looked up): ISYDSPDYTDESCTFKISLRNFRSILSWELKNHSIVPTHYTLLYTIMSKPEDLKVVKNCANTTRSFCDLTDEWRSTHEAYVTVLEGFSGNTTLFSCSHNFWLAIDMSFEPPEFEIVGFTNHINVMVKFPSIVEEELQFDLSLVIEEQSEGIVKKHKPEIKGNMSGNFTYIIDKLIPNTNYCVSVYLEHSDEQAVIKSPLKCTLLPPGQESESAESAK
In words: ELISA on captured IFNAR2/Fc; reference of the assay, EC50 not given.

Assay [2] has as its target T2, type I interferon cell surface receptor complex (IFNAR1/2 complex) expressed on Daudi Burkitt's lymphoma cells (human, UniProt P17181 28-557; P48551 27-515).
T2 construct: whole, on cells; Endogenous receptor of human Daudi cells; both chains together comprise the receptor for interferon-beta; also called IFNAR1/2 cell surface receptor; cognate receptor on Daudi cells
T2 sequence (looked up) 1: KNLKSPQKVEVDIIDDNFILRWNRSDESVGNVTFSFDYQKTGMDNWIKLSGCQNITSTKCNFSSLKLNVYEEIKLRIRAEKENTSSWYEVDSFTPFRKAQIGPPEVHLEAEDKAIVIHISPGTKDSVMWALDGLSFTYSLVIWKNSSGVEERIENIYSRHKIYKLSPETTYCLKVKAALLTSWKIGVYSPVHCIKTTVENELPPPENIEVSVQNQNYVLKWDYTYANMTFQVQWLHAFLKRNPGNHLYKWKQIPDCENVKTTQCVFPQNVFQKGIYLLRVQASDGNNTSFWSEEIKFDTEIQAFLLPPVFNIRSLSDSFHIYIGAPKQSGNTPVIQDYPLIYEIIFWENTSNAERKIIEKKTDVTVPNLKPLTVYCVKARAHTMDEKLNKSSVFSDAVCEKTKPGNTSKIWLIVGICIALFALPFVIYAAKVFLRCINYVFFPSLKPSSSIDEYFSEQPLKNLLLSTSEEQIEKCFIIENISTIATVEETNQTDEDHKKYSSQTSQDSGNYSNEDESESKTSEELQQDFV
T2 sequence (looked up) 2: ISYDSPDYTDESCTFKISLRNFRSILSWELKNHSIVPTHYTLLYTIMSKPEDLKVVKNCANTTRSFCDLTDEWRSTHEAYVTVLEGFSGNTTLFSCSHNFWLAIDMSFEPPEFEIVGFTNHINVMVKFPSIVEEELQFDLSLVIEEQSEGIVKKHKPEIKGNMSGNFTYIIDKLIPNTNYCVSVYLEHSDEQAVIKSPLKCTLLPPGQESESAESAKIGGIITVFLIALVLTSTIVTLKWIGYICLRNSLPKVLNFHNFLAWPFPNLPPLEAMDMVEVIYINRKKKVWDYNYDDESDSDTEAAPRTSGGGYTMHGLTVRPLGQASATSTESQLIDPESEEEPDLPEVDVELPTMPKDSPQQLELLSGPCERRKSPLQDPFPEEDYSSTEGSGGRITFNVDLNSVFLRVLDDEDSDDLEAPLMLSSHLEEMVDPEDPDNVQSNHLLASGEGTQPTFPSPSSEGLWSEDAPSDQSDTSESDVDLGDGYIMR
Put plainly: FACS on Daudi cells, inhibition of EA12 staining; reference of the assay, value not given.

Assay [3] has as its target T1, IFNAR2/Fc fusion protein (extracellular …). Put plainly: ELISA on IFNAR2/Fc captured by anti-human IgG1 mAb. For orientation: In an ELISA, binding on a coated surface is turned into a signal by an enzyme label.
Assay [4] shares this target. Put plainly: ELISA on captured IFNAR2/Fc.

B1: histidine tagged wild-type interferon-beta-1a (ligand)
chain: SGGHHHHHHSSGDDDDKMSYNLLGFLQRSSNFQCQKLLWQLNGRLEYCLKDRMNFDIPEEIKQLQQFQKEDAALTIYEMLQNIFAIFRQDSSSTGWNETIVENLLANVYHQINHLKTVLEEKLEKEDFTRGKLMSSLHLKRYYGRILHYLKAKEYSHCAWTIVRVEILRNFYFINRLTGYLRN
notes: also called his IFN-beta; His6-tagged
With B1, the binding result in assay [1] and in assay [2] was “binds” each time.

B2: his tagged-interferon-beta alanine substitution mutant E (ligand)
chain: SGGHHHHHHSSGDDDDKMSYNLLGFLQRSSNFQCQKLLWQLNGRLEYCLKDRMNFDIPEEIKQLQQFQKEDAALTIYEMLQNIFAIFRQDSSSTGWNETIVENLLANVYHQINHLKTVLEEKLEKEDFTRGKLMSSLHLKRYYGRILHYLKAKEYSHCAWTIVRAEILANFAFIARLTGYLRN
notes: Tested as conditioned medium of EBNA 293 cells
On to B2, for which the binding result in assay [3] is “no binding”. The “concentration without binding, fold over the w.t. his-IFN-beta EC50” value (“concentration without binding, fold” below) in assay [4] is greater than 500 fold.

B3: his tagged-interferon-beta alanine substitution mutant AB1 (ligand)
chain: SGGHHHHHHSSGDDDDKMSYNLLGFLQRSSNFQCQKLLWQLNGRAAACAADRMNFDIPEEIKQLQQFQKEDAALTIYEMLQNIFAIFRQDSSSTGWNETIVENLLANVYHQINHLKTVLEEKLEKEDFTRGKLMSSLHLKRYYGRILHYLKAKEYSHCAWTIVRVEILRNFYFINRLTGYLRN
notes: as for B2
Turning to B3, in assay [3], the binding result is “no binding”. Moreover, the “concentration without binding, fold” value in assay [4] is greater than 500 fold.

B4: his tagged-interferon-beta alanine substitution mutant A2 (ligand)
chain: SGGHHHHHHSSGDDDDKMSYNLLGFLQRSSNAACAALLAALNGRLEYCLKDRMNFDIPEEIKQLQQFQKEDAALTIYEMLQNIFAIFRQDSSSTGWNETIVENLLANVYHQINHLKTVLEEKLEKEDFTRGKLMSSLHLKRYYGRILHYLKAKEYSHCAWTIVRVEILRNFYFINRLTGYLRN
notes: as for B2
As to B4, in assay [3], the binding result was “no binding”. For the same molecule, in assay [4], the “concentration without binding, fold” value was 500 fold.

B5: his tagged-interferon-beta alanine substitution mutant AB2 (ligand)
chain: SGGHHHHHHSSGDDDDKMSYNLLGFLQRSSNFQCQKLLWQLNGRLEYCLKDRAAFAIPAEIKQLQQFQKEDAALTIYEMLQNIFAIFRQDSSSTGWNETIVENLLANVYHQINHLKTVLEEKLEKEDFTRGKLMSSLHLKRYYGRILHYLKAKEYSHCAWTIVRVEILRNFYFINRLTGYLRN
notes: as for B2
In the case of B5, the binding result in assay [3] is reported as “no binding”. In assay [4], the “concentration without binding, fold” value is greater than 500 fold.

For the origin of these results see patent EP1739090A2 (Biogen Idec MA Inc., dated 2007).
